Article PMC3901395, “Multivalent interactions of the SUMO-interaction motifs in RING finger protein 4 determine the specificity for chains of the SUMO” (Biochemical Journal, 2013)

What was measured:
(SUMO2)4–GFP–HA2 = test: Pulse–chase analysis of (SUMO2)4–GFP–HA2 turnover in yeast; format: cell-based, S. cerevisiae; conditions: 2 min pulse labelling with [35S]methionine, anti-HA immunoprecipitation, phosphorimaging
Source text: To correlate the strength of the interaction of RNF4 and its SIM mutants with poly-SUMOs to the activity of RNF4 in living cells, we made use of our previous findings that RNF4 is functional in yeast and disrupts PML-NBs in mammalian cells. We therefore co-expressed combinations of full-length wt RNF4 or its SIM mutants with poly-SUMO chains that retained the native N-terminus on the first SUMO moiety and were C-terminally tagged with GFP–HA in S. cerevisiae. As shown in Figures 3(A)–3(C), the poly-SUMO–GFP–HA reporter constructs were efficiently targeted for degradation. Compared with the control transformants not expressing RNF4, the levels of di-SUMO2 were reduced to approximately 55%, and this effect was enhanced if the chain was composed of three or four SUMOs (45% and 43% of control levels respectively). […]
Concentrated di-SUMO2-/Delta1N11 (10 mg/ml) in crystallization […] buffer was used for crystallization experiments by hanging-drop […] vapour diffusion. Crystals grew in a solution of 0.1 M Tris/HCl, […] pH 8.0, 28 % PEG 350 MME (Qiagen) and 0.05 % dioxane within […] 2–4 days at room temperature (21 ◦ C). […]

di-SUMO2–GFP–HA2 = test: Proteasomal targeting of di-SUMO2–GFP–HA2 by RNF4 in yeast; format: cell-based, S. cerevisiae
Source text: For expression in Escherichia coli, linear poly-SUMO chains were generated as described previously with slight modifications. After the combined PCR/ligation reaction, the 4×SUMO2-ΔN11 or 4×SUMO1-ΔN15 DNA polymers were separated from smaller polymers by agarose gel electrophoresis and individually extracted (Macherey–Nagel). These were then subjected to a second PCR with primers to create BamHI and XhoI restriction sites, a C-terminal GG motif and a stop codon. The resulting fragments coding for di-, tri- and tetra-SUMO2-ΔN11 or SUMO1-ΔN15 chains were amplified and cloned into pGEX-4T2. […] Each monomer in these chains is separated by RS replacing the natural GG motif. […]
wt (wild-type) S. cerevisiae strains (JD47-13C) containing centromeric (low copy) plasmids expressing various (SUMO2)n–GFP–HA2 ([…]) fusions were grown overnight in minimal medium composed of 0.67% yeast nitrogen base with 2% raffinose as a carbon source. Cells from the overnight cultures were used to inoculate cultures with minimal media containing 2% galactose at a starting attenuance measured at 600 nm of 0.25. […] The levels of substrates and, as a loading control, levels of CDC11 were analysed by Western blotting and detection with an Odyssey infrared fluorescence imaging system (LI-COR).

B1: RNF4 FL: full-length human RNF4 (RING finger protein 4); FLAG-tagged in yeast, HA-tagged in HeLa cells (protein)
chain: MSTRKRRGGAINSRQAQKRTREATSTPEISLEAEPIELVETAGDEIVDLTCESLEPVVVDLTHNDSVVIVDERRRPRRNARRLPQDHADSCVVSSDDEELSRDRDVYVTTHTPRNARDEGATGLRPSGTVSCPICMDGYSEIVQNGRLIVSTECGHVFCSQCLRDSLKNANTCPTCRKKINHKRYHPIYI
modifications: left off: GST, end not stated, cleaved
notes: full-length human RNF4 (RING finger protein 4); FLAG-tagged in yeast, HA-tagged in HeLa cells
turnover of linear tetra-SUMO2 reporter, pulse–chase ((SUMO2)4–GFP–HA2): degraded upon coexpression of RNF4
level of di-SUMO2–GFP–HA reporter (control without RNF4 = 100%) (di-SUMO2–GFP–HA2; yeast coexpressing RNF4, Western blot, normalized to CDC11): approximately 55%
targeting of di-SUMO2 in yeast (di-SUMO2–GFP–HA2; yeast coexpressing wt RNF4): efficiently targets di-SUMO2 in yeast
